Assay results as given in patent US20240391954A1, “MC4R AGONIST PEPTIDES” (The Regents of the University of Michigan, priority 2021, published 2024).
Where two headings read alike, the source gives them in different places. Positions of bridges follow the written chain, without caps; N, C: chain ends. Non-standard residues stand in square brackets, D forms with d. Residues, ends and D or L forms follow the SMILES beside them. dPhe(4-Br) = N[C@H](Cc1ccc(Br)cc1)C(=O)O

How the values were obtained:
human MC3R [1] = molecular target: T1, human MC3R (Homo sapiens, UniProt P41968); experiment: split-luciferase cAMP sensor assay, antagonist mode in presence of EC90 α-MSH (measurement window 2), hMC3R; assay type: cell-based; conditions: agonist curves and antagonist curves in presence of EC80 to EC90 α-MSH
T1 construct: expressed in transfected cells; host or cells: HEK-293 cells stably expressing the GScAMP22F split-luciferase cAMP sensor (parent reporter line from Promega); MC3R clone generated in-house, G418 selection
T1 sequence (P41968 whole entry): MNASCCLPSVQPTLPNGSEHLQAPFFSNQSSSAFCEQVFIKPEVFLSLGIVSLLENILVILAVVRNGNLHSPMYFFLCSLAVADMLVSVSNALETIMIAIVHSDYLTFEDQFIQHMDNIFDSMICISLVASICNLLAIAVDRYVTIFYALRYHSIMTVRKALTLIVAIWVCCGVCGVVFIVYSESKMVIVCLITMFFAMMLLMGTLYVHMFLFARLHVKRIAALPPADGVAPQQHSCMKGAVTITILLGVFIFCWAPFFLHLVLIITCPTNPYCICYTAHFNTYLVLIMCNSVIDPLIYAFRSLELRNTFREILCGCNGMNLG
Method: FIG. 2. […] Concentration-response agonist curves for CTX-2205 and CTX-1214 at the human MC3R (blue) and human MC4R (red) were determined by a split-luciferase cAMP sensor dynamic assay in HEK-293 cells stably expressing the hMC3R or hMC4R and the GScAMP22F CAMP sensor. The antagonist curves were determined in the presence of an EC80 to EC90 concentration of α-MSH. Each data point represents the mean±SEM of two experiments with three replicates each per experiment. Data is normalized to the ECmax of α-MSH.
The assay for the determination of the cAMP response in live cells was described previously. (Yu et al., 2020, Science 368, 428-433; incorporated by reference in its entirety). […] Intracellular cAMP levels were measured using an FDSS 7000EX Functional Drug Screening System (Hamamatsu Photonics, Hamamatsu, Japan) in the Center for Chemical Genomics at the Life Sciences Institute. This instrument allowed the in-line addition of test-peptides and receptor agonists while simultaneously acquiring the luminescence signal from live cells. […]
With this set up it was possible to evaluate the direct effect of the test-peptides on the MC3R and MC4R cell lines during measurement window 1, while the antagonist profile in the presence of EC90 α-MSH was determined on measurement window 2. […]

human MC4R = molecular target: T2, human MC4R (Homo sapiens, UniProt P32245); experiment: split-luciferase cAMP sensor assay, agonist mode (measurement window 1), hMC4R; assay type: cell-based; conditions: for Emax: read-out: MC4R cAMP % max activation
T2 construct: host or cells: HEK-293 cells stably expressing the GScAMP22F split-luciferase cAMP sensor and hMC4R, G418 selection
T2 sequence (P32245 whole entry): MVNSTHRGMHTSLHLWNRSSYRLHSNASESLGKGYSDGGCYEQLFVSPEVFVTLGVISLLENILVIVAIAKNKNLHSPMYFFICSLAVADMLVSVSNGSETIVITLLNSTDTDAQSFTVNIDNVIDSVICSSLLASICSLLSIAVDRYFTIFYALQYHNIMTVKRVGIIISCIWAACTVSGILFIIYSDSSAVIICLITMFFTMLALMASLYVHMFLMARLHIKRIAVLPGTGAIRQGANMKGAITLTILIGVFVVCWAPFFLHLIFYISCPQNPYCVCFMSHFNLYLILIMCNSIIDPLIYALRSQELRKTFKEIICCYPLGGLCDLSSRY
Outline: (§1)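 Live stable cell lines carrying receptor plus GloSensor cAMP22f split-luciferase, loaded with 4% D-luciferin in serum-free medium (~1% serum estimated during assay). Luminescence recorded during in-line peptide addition; direct agonist effect read in window 1, with 20 μM forskolin as normalization reference. EC50 from four-parameter sigmoid fit.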

human MC3R [2] = molecular target: T1, human MC3R; experiment: split-luciferase cAMP sensor assay, agonist mode (measurement window 1), hMC3R; assay type: cell-based; conditions: agonist mode, hMC3R stable cell line; for Emax: read-out: MC3R cAMP % max activation
Outline: as §1

plasma protein [3] = experiment: plasma ultrafiltration (Centrifree), LC-MS/MS; peptide 0.1 uM
plasma protein [4] = experiment: plasma ultrafiltration (Centrifree), LC-MS/MS; peptide 1.0 uM
plasma protein [5] = experiment: plasma ultrafiltration (Centrifree), LC-MS/MS; peptide 10.0 uM
human MC4R receptor [6] = molecular target: T3, human MC4R receptor (human, UniProt P32245 1-332); experiment: cell-based or functional assay
T3 sequence (P32245 whole entry): as above

human MC4R receptor [7] = molecular target: T3, human MC4R receptor; experiment: cell-based or functional assay; remark: listed apart in the source
human MC3R [8] = molecular target: human MC3R (human, UniProt P41968 1-323); experiment: cell-based or functional assay
Chain of human MC3R (human, UniProt P41968 1-323) (P41968 whole entry): as the sequence (P41968 whole entry) above

human MC4R receptor [9] = molecular target: T3, human MC4R receptor; experiment: cell-based or functional assay; remark: listed apart in the source
[10] = agonist mode, hMC4R stable cell line

In the case of `CC(=O)N[C@@H](CCCNC(=N)N)C(=O)N[C@H]1CSSC[C@@H](C(N)=O)NC(=O)[C@@H](Cc2c[nH]c3ccccc23)NC(=O)[C@H](CCCNC(=N)N)NC(=O)[C@@H](Cc2ccc(Br)cc2)NC(=O)[C@H](CCCNC(=N)N)NC(=O)[C@@H](C)NC1=O` [CTX-1214, Arg-cyclo(Cys-D-Ala-Arg-D-Phe(4-Br)-Arg-D-Trp-Cys)] (Ac-RC[dA]R[dPhe(4-Br)]R[dW]C-NH2; disulfide 2-8 (inferred)), the “pharmacological properties at hMC4R and hMC3R” value (human MC3R [1]) is reported as “dual MC4R agonist, MC3R antagonist properties”, the “MC4R selectivity vs MC3R” value (human MC4R) is reported as 0.2 and the Emax (human MC4R; [10]) is reported as 74%. The EC50 (human MC4R; agonist mode, hMC4R stable cell line, read-out: MC4R cAMP EC50) was 2.6 nM, the Emax (human MC3R [2]) was 15% and the EC50 (human MC3R [2]; read-out: MC3R cAMP EC50) was 4.1 nM.

In the case of `CC(=O)N[C@@H](CCCNC(=N)N)C(=O)N[C@H]1CSSC[C@@H](C(N)=O)NC(=O)[C@H](Cc2c[nH]c3ccccc23)NC(=O)[C@H](CCCNC(=N)N)NC(=O)[C@@H](Cc2ccc(Br)cc2)NC(=O)[C@H](CCCNC(=N)N)NC(=O)[C@@H](C)NC1=O` [CTX-2205, Arg-cyclo(Cys-D-Ala-Arg-D-Phe(4-Br)-Arg-Trp-Cys)] (Ac-RC[dA]R[dPhe(4-Br)]RWC-NH2; disulfide 2-8), the “pharmacological properties at hMC4R and hMC3R” value (human MC3R [1]) is reported as “dual MC4R agonist, MC3R antagonist properties”, the “MC4R selectivity vs MC1R” value (human MC4R) is reported as 0.2 and the “MC4R selectivity vs MC3R” value (human MC4R) is reported as 2.12. It also gave an Emax (human MC4R; [10]) of 88% and an Emax (human MC3R [2]) of 13%.

For CTX-1200 (setmelanotide) (peptide), the Protein Binding (%) (plasma protein [3]) was 43%, the Protein Binding (%) (plasma protein [4]) was 57% and the Protein Binding (%) (plasma protein [5]) was 61%. For the same molecule, the MC4R selectivity vs MC1R (human MC4R receptor [6]) was 0.69 and the MC4R selectivity vs MC3R (human MC4R receptor [6]) was 4.09.

B1: CTX-1258 (peptide)
peptide: Ac-RC[dA]R[dPhe(4-Br)]RFC-NH2
modifications: disulfide 2-8
SMILES: CC(=O)N[C@@H](CCCNC(=N)N)C(=O)N[C@H]1CSSC[C@@H](C(N)=O)NC(=O)[C@H](Cc2ccccc2)NC(=O)[C@H](CCCNC(=N)N)NC(=O)[C@@H](Cc2ccc(Br)cc2)NC(=O)[C@H](CCCNC(=N)N)NC(=O)[C@@H](C)NC1=O
With B1 the Protein Binding (%) (plasma protein [3]) was 47%, the Protein Binding (%) (plasma protein [4]) was 50% and the Protein Binding (%) (plasma protein [5]) was 50%. For the same molecule, the “% max activation” value (human MC4R receptor [7]) was 92%, the “cAMP EC50” value (human MC4R receptor [7]) was 2.4 nM and the “% max activation” value (human MC3R [8]) was 36%. The “cAMP EC50” value (human MC3R [8]) was 7.4 nM, the “MC4R selectivity vs MC1R” value (human MC4R receptor [9]) was 0.53 and the “MC4R selectivity vs MC3R” value (human MC4R receptor [9]) was 3.04.
